Laboratory results published in US20140093973A1 (BOARD OF REGENTS OF THE UNIVERSITY OF OKLAHOMA, published 2014).
Read-outs that look alike come from different tables or passages of the source. Ends that are not written are not given here.

Legend:
[1] = target: soluble HLA-A*0201 (sHLA-A*0201) (human); assay: FP screen
[2] = target: T1, soluble HLA-B*2705 (sHLA-B*2705) (human); assay: FP screen
T1 construct: Recombinant soluble class I with endogenous peptides, made as m1; negative control

[3] = target: T2, soluble HLA-A*6801 (sHLA-A*6801) (human); assay: FP screen
T2 construct: Recombinant soluble class I with endogenous peptides, made as m1

soluble HLA-B*1302 [4] = target: T3, soluble HLA-B*1302 (human); assay: FP screen
T3 construct: Member of the panel of 53 single-specificity sHLA

soluble HLA-B*1501 [5] = target: T4, soluble HLA-B*1501 (human); assay: FP screen
T4 construct: Member of the panel of 53 single-specificity sHLA

soluble HLA-B*1512 [6] = target: T5, soluble HLA-B*1512 (human); assay: FP screen
T5 construct: Member of the panel of 53 single-specificity sHLA

soluble HLA-A*0301 [7] = target: T6, soluble HLA-A*0301 (human); assay: FP screen
T6 construct: Member of the panel of 53 single-specificity sHLA

[8] = target: T7, soluble HLA-A*6901 (sHLA-A*6901) (human); assay: FP screen
T7 construct: Recombinant soluble class I with endogenous peptides, made as m1

soluble HLA-A*2402 [9] = target: T8, soluble HLA-A*2402 (human); assay: FP screen
T8 construct: Member of the panel of 53 single-specificity sHLA

soluble HLA-A*2301 [10] = target: T9, soluble HLA-A*2301 (human); assay: FP screen
T9 construct: Member of the panel of 53 single-specificity sHLA

soluble HLA-A*6601 [11] = target: T10, soluble HLA-A*6601 (human); assay: FP screen
T10 construct: Member of the panel of 53 single-specificity sHLA

soluble HLA-B*4501 [12] = target: T11, soluble HLA-B*4501 (human); assay: FP screen
T11 construct: Member of the panel of 53 single-specificity sHLA

soluble HLA-A*3002 [13] = target: T12, soluble HLA-A*3002 (human); assay: FP screen
T12 construct: Member of the panel of 53 single-specificity sHLA

soluble HLA-B*1801 [14] = target: T13, soluble HLA-B*1801 (human); assay: FP screen
T13 construct: Member of the panel of 53 single-specificity sHLA

soluble HLA-B*4002 [15] = target: T14, soluble HLA-B*4002 (human); assay: FP screen
T14 construct: Member of the panel of 53 single-specificity sHLA

soluble HLA-B*4001 [16] = target: T15, soluble HLA-B*4001 (human); assay: FP screen
T15 construct: Member of the panel of 53 single-specificity sHLA

soluble HLA-B*4402 [17] = target: T16, soluble HLA-B*4402 (human); assay: FP screen
T16 construct: Member of the panel of 53 single-specificity sHLA

[18] = target: T17, soluble HLA-A*1102 (sHLA-A*1102) (human, UniProt P04439 25-308; P61769 21-119); assay: FP screen
T17 construct: Recombinant soluble class I with endogenous peptides, made as m1

soluble HLA-A*0101 [19] = target: T18, soluble HLA-A*0101 (human); assay: FP screen of 53 sHLA with FITC-peptide
T18 construct: Member of the panel of 53 single-specificity sHLA

soluble HLA-A*2902 = target: T19, soluble HLA-A*2902 (human); assay: FP screen of 53 sHLA with FITC-peptide
T19 construct: Member of the panel of 53 single-specificity sHLA

[20] = target: soluble HLA-A*0201 (sHLA-A*0201) (human); assay: FP screen; remark: listed apart in the source
[21] = target: T1, soluble HLA-B*2705 (sHLA-B*2705); assay: FP screen; remark: listed apart in the source
soluble HLA-A*0101 [22] = target: T18, soluble HLA-A*0101; assay: FP screen
soluble HLA-A*3601 = target: T20, soluble HLA-A*3601 (human); assay: FP screen
T20 construct: Member of the panel of 53 single-specificity sHLA

soluble HLA-A*2601 = target: T21, soluble HLA-A*2601 (human); assay: FP screen
T21 construct: Member of the panel of 53 single-specificity sHLA

soluble HLA-B*1302 [23] = target: T3, soluble HLA-B*1302; assay: FP screen; remark: listed apart in the source
soluble HLA-B*1501 [24] = target: T4, soluble HLA-B*1501; assay: FP screen; remark: listed apart in the source
soluble HLA-B*1512 [25] = target: T5, soluble HLA-B*1512; assay: FP screen; remark: listed apart in the source
[26] = target: T7, soluble HLA-A*6901 (sHLA-A*6901); assay: FP screen; remark: listed apart in the source
soluble HLA-A*2402 [27] = target: T8, soluble HLA-A*2402; assay: FP screen; remark: listed apart in the source
soluble HLA-A*2301 [28] = target: T9, soluble HLA-A*2301; assay: FP screen; remark: listed apart in the source
soluble HLA-A*6601 [29] = target: T10, soluble HLA-A*6601; assay: FP screen; remark: listed apart in the source
soluble HLA-B*4501 [30] = target: T11, soluble HLA-B*4501; assay: FP screen; remark: listed apart in the source
soluble HLA-A*3002 [31] = target: T12, soluble HLA-A*3002; assay: FP screen; remark: listed apart in the source
soluble HLA-B*1801 [32] = target: T13, soluble HLA-B*1801; assay: FP screen; remark: listed apart in the source
soluble HLA-B*4002 [33] = target: T14, soluble HLA-B*4002; assay: FP screen; remark: listed apart in the source
soluble HLA-B*4001 [34] = target: T15, soluble HLA-B*4001; assay: FP screen; remark: listed apart in the source
soluble HLA-B*4402 [35] = target: T16, soluble HLA-B*4402; assay: FP screen; remark: listed apart in the source
[36] = target: T22, soluble HLA-A*4301 (sHLA-A*4301) (human); assay: FP screen
T22 construct: Recombinant soluble class I with endogenous peptides, made as m1

soluble HLA-A*3402 = target: T23, soluble HLA-A*3402 (human); assay: FP screen of 53 sHLA with FITC-peptide
T23 construct: Member of the panel of 53 single-specificity sHLA

soluble HLA-A*0301 [37] = target: T6, soluble HLA-A*0301; assay: FP screen of 53 sHLA with FITC-peptide

B1: YLEPAKAKY, FITC-labeled A1-like peptide (peptide)
peptide: YLEPAKAKY
modifications: also: FITC-labeled, position not given here
binding result [1]: no binding (tested: 100 ug/ml sHLA) | binding result [2]: no binding (tested: 100 ug/ml sHLA) | binding result [3]: no binding (tested: 100 ug/ml sHLA) | binding result (soluble HLA-B*1302 [4]): no binding (tested: 100 ug/ml sHLA) | binding result (soluble HLA-B*1501 [5]): no binding (tested: 100 ug/ml sHLA) | binding result (soluble HLA-B*1512 [6]): no binding (tested: 100 ug/ml sHLA) | binding result (soluble HLA-A*0301 [7]): no binding (tested: 100 ug/ml sHLA) | binding result [8]: no binding (tested: 100 ug/ml sHLA) | binding result (soluble HLA-A*2402 [9]): no binding (tested: 100 ug/ml sHLA) | binding result (soluble HLA-A*2301 [10]): no binding (tested: 100 ug/ml sHLA) | binding result (soluble HLA-A*6601 [11]): no binding (tested: 100 ug/ml sHLA) | binding result (soluble HLA-B*4501 [12]): no binding (tested: 100 ug/ml sHLA) | binding result (soluble HLA-A*3002 [13]): no binding (tested: 100 ug/ml sHLA) | binding result (soluble HLA-B*1801 [14]): no binding (tested: 100 ug/ml sHLA) | binding result (soluble HLA-B*4002 [15]): no binding (tested: 100 ug/ml sHLA) | binding result (soluble HLA-B*4001 [16]): no binding (tested: 100 ug/ml sHLA) | binding result (soluble HLA-B*4402 [17]): no binding (tested: 100 ug/ml sHLA) | binding result [18]: no binding (tested: 100 ug/ml sHLA) | binding result (soluble HLA-A*0101 [19]): binds | binding result (soluble HLA-A*2902): binds

B2: KVFPKALINK, FITC-labeled A3-like peptide (peptide)
peptide: KVFPKALINK
modifications: also: FITC-labeled, position not given here
binding result [20]: no binding (tested: 100 ug/ml sHLA) | binding result [21]: no binding (tested: 100 ug/ml sHLA) | binding result (soluble HLA-A*0101 [22]): no binding (tested: 100 ug/ml sHLA) | binding result (soluble HLA-A*3601): no binding (tested: 100 ug/ml sHLA) | binding result (soluble HLA-A*2601): no binding (tested: 100 ug/ml sHLA) | binding result (soluble HLA-B*1302 [23]): no binding (tested: 100 ug/ml sHLA) | binding result (soluble HLA-B*1501 [24]): no binding (tested: 100 ug/ml sHLA) | binding result (soluble HLA-B*1512 [25]): no binding (tested: 100 ug/ml sHLA) | binding result [26]: no binding (tested: 100 ug/ml sHLA) | binding result (soluble HLA-A*2402 [27]): no binding (tested: 100 ug/ml sHLA) | binding result (soluble HLA-A*2301 [28]): no binding (tested: 100 ug/ml sHLA) | binding result (soluble HLA-A*6601 [29]): no binding (tested: 100 ug/ml sHLA) | binding result (soluble HLA-B*4501 [30]): no binding (tested: 100 ug/ml sHLA) | binding result (soluble HLA-A*3002 [31]): no binding (tested: 100 ug/ml sHLA) | binding result (soluble HLA-B*1801 [32]): no binding (tested: 100 ug/ml sHLA) | binding result (soluble HLA-B*4002 [33]): no binding (tested: 100 ug/ml sHLA) | binding result (soluble HLA-B*4001 [34]): no binding (tested: 100 ug/ml sHLA) | binding result (soluble HLA-B*4402 [35]): no binding (tested: 100 ug/ml sHLA) | binding result [36]: no binding (tested: 100 ug/ml sHLA) | binding result (soluble HLA-A*3402): binds | binding result (soluble HLA-A*0301 [37]): binds
